Patent US20170240629A1 (Hoffmann-La Roche, published 2017)
Read-outs that look alike come from different tables or passages of the source.

Tests used:
[1] = biological target: T1, human IL-1beta (human, UniProt P01584 117-269); experiment: SPR (BIAcore); antibody captured by anti-Fc, IL-1beta injected
Protocol: (§1) All experiments were performed at 25° C. using HBS-P (10 mM His, 140 mM NaCl, 0.05% Tween 20 pH 7.4) as running and dilution buffer. Anti-human or anti-mouse Fc antibodies were immobilized on a Series S CM5 Sensor Chip (GE Healthcare) using standard amine coupling chemistry. […] The dissociation phase was monitored for 600 sec by washing with running buffer. […] The surface was regenerated by injecting 3 M MgCl2 (for anti-human Fc antibody) or 10 mM Glycine pH 1.5 (for anti-mouse Fc antibody) for 60 sec at a flow rate of 5 μl/min. Bulk refractive index differences were corrected by subtracting the response obtained from a mock surface. Blank injections were subtracted (double referencing). The derived curves were fitted to a 1:1 Langmuir binding model using the BIAevaluation software.

[2] = biological target: cynomolgus IL-1beta (cynomolgus, UniProt P79182 117-268); experiment: as above
Protocol: as §1

[3] = biological target: T1, human IL-1beta; experiment: cell-based or functional assay
[4] = biological target: T1, human IL-1beta; experiment: cell-based or functional assay; remark: listed apart in the source
[5] = biological target: T1, human IL-1beta; experiment: cell-based or functional assay; remark: listed apart in the source
[6] = biological target: T1, human IL-1beta; experiment: SPR (BIAcore T200); antibody captured by anti-human Fc, human IL-1beta injected (Example 52); design: t 1/2: unit not given here
[7] = biological target: T1, human IL-1beta; experiment: cell-based or functional assay; remark: listed apart in the source
[8] = biological target: T1, human IL-1beta; experiment: SPR (BIAcore); Fab captured by anti-human Fab, IL-1beta injected (Example 55)
Protocol: All experiments were performed at 25° C. using HBS-P (10 mM His, 140 mM NaCl, 0.05% Tween 20 pH 7.4) as running and dilution buffer. Anti-human Fc or anti-human Fab antibodies were immobilized on a Series S CM5 Sensor Chip (GE Healthcare) using standard amine coupling chemistry. […] The dissociation phase was monitored for 600 sec by washing with running buffer. The surface was regenerated by injecting 3 M MgCl2 (for anti-human Fc antibody) or 10 mM Glycine pH 1.5 (for anti-mouse Fc antibody) for 60 sec at a flow rate of 5 μl/min. Bulk refractive index differences were corrected by subtracting the response obtained from a mock surface. Blank injections were subtracted (double referencing). The derived curves were fitted to a 1:1 Langmuir binding model using the BIAevaluation software.

[9] = biological target: T1, human IL-1beta; experiment: cell-based or functional assay; remark: listed apart in the source

Binder	Kd [1] [nM]	koff [1] [s⁻¹]	kon [1] [M⁻¹ s⁻¹]	Kd [2] [nM]	koff [2] [s⁻¹]	kon [2] [M⁻¹ s⁻¹]	IC50, inhibition of proliferation of D10 cells [3] [nM]	EC50, reduction of IL-6 expression upon IL-1beta stimulation of A549 cells [4] [nM]	IC50, inhibition of ICAM-1 expression upon IL-1beta stimulation of A549 cells [5] [nM]	Kd [6] [nM]	koff [6] [s⁻¹]	kon [6] [M⁻¹ s⁻¹]	t 1/2 [6]	IC50, inhibition of ICAM-1 expression upon IL-1beta stimulation of HUVEC cells [7] [nM]	Kd [8] [nM]	koff [8] [s⁻¹]	kon [8] [M⁻¹ s⁻¹]	EC50, reduction of IL-6 expression upon IL-1beta stimulation of A549 cells [9] [µg/mL]
huH34-2 (antibody, V domains shown, Humanized antibody expressed in HEK cells; also called huH34-2 bivalent; humanized version of H34) VH: QVQLVQSGAEVKKPGASVKVSCKASGYTFTGYYMHWVRQAPGQGLEWIGYISSYNAFTTYNQKFRGRATFTVDTSISTAYMELSRLRSDDTAVYYCVRSDYYGTSLYWGQGTLVTVSS VL: EIVLTQSPATLSLSPGERATLSCRASSSVSYMHWSQQKPGQAPRLLIYSTSNLASGIPARFSGSGSGTDFTLTISSLEPEDFAVYYCHQWSNYYTFGQGTKLEIK	0.06	0.00011	1.93e+06	0.05	0.000118	2.2e+06	0.83	0.11	0.23	0.05	0.000115	2.43e+06	101	0.3	–	–	–	–
antibody 0032 (bispecific antibody, V domains shown, CrossMab; only variable domains are tied to it; also called anti-IL-1beta/VEGF antibody) VH 1: EVQLVESGGGLVQPGGSLRLSCAASGYDFTHYGMNWVRQAPGKGLEWVGWINTYTGEPTYAADFKRRFTFSLDTSKSTAYLQMNSLRAEDTAVYYCAKYPYYYGTSHWYFDVWGQGTLVTVSS VL 1: DIQLTQSPSSLSASVGDRVTITCSASQDISNYLNWYQQKPGKAPKVLIYFTSSLHSGVPSRFSGSGSGTDFTLTISSLQPEDFATYYCQQYSTVPWTFGQGTKVEIK VH 2: QVQLVQSGAEVKKPGASVKVSCKASGYTFTGYYMHWVRQAPGQGLEWIGYISSYNAFTTYNQKFRGRATFTVDTSISTAYMELSRLRSDDTAVYYCVRSDYYGTSLYWGQGTLVTVSS VL 2: EIVLTQSPATLSLSPGERATLSCRASSSVSYMHWSQQKPGQAPRLLIYSTSNLASGIPARFSGSGSGTDFTLTISSLEPEDFAVYYCHQWSNYYTFGQGTKLEIK	–	–	–	–	–	–	–	–	–	0.12	0.000305	2.49e+06	38	–	–	–	–	0.0387

The next lines start with the values.

Kd [1] [nM]	koff [1] [s⁻¹]	kon [1] [M⁻¹ s⁻¹]	Kd [2] [nM]	koff [2] [s⁻¹]	kon [2] [M⁻¹ s⁻¹]	IC50, inhibition of proliferation of D10 cells [3] [nM]	EC50, reduction of IL-6 expression upon IL-1beta stimulation of A549 cells [4] [nM]	IC50, inhibition of ICAM-1 expression upon IL-1beta stimulation of A549 cells [5] [nM]	Kd [6] [nM]	koff [6] [s⁻¹]	kon [6] [M⁻¹ s⁻¹]	t 1/2 [6]	IC50, inhibition of ICAM-1 expression upon IL-1beta stimulation of HUVEC cells [7] [nM]	Kd [8] [nM]	koff [8] [s⁻¹]	kon [8] [M⁻¹ s⁻¹]	EC50, reduction of IL-6 expression upon IL-1beta stimulation of A549 cells [9] [µg/mL]	Binder
0.15	0.000302	1.97e+06	0.22	0.000491	2.21e+06	–	1.09	2.23	–	–	–	–	–	–	–	–	–	huH34-3 (antibody, V domains shown, VH = 11 and VL = 16 read by analogy with huH34-2) VH: QVQLVQSGAEVKKPGASVKVSCKASGYTFTGYYMHWVRQAPGQGLEWIGYISSYSAFTTYNQKFRGRATFTVDTSISTAYMELSRLRSDDTAVYYCVRSDYYGTSLYWGQGTLVTVSS VL: EIVLTQSPATLSLSPGERATLSCRASSSVSYMHWSQQKPGQAPRLLIYSTSNLASGIPARFSGSGSGTDFTLTISSLEPEDFAVYYCHQWSNYYTFGQGTKLEIK
–	–	–	–	–	–	–	–	–	–	–	–	–	–	0.06	0.000111	1.81e+06	–	huH34-2 Fab (Fab, V domains shown, also called huH34-2 Fab-fragment) VH: QVQLVQSGAEVKKPGASVKVSCKASGYTFTGYYMHWVRQAPGQGLEWIGYISSYNAFTTYNQKFRGRATFTVDTSISTAYMELSRLRSDDTAVYYCVRSDYYGTSLYWGQGTLVTVSS VL: EIVLTQSPATLSLSPGERATLSCRASSSVSYMHWSQQKPGQAPRLLIYSTSNLASGIPARFSGSGSGTDFTLTISSLEPEDFAVYYCHQWSNYYTFGQGTKLEIK
